From patent publication US7071384B2, “Methods for commercial production of heterologous laccase in plant tissue and extraction of the laccase from plant seed” (Genencor International, Inc., priority 1997, dated 2006)

Columns and labels:
[1] = rGUS activity after extraction treatments (hexane defatting; SDS/ME buffer); assay type: physicochemical
Protocol: A portion of the germ sample prepared by the degermination process was defatted by using a Soxhlet apparatus. Forty grams of full-fat germ were extracted with 300 ml of hexane for five hours, and then air-dried at ambient temperature to remove the hexane.
All samples (flaked kernels, full-fat germ and defatted germ) were ground using a coffee grinder before protein extraction. The samples were extracted at 1:4 or 1:10 solid-to-liquid ratio with 50 mM NaPi buffer of pH 7.5. The extraction was carried out for 15 minutes at ambient temperature by using a magnetic stirrer for mixing less than 50-ml and a paddle mixer for greater than 50-ml volumes. After stirring, the suspension was centrifuged at 26,000 g for 25 min at 0° C., and then filtered through a 4-layer of cheesecloth. The extract was assayed for GUS activity (Hood et al., supra) and protein (Jefferson, R. A.; Wilson, K. J. (1991). In The GUS Gene Fusion system. In “Plant Molecular Biology Manual”, Vol. 1, B14, (S. B. Gelven, R. A. Schilperoort and D. P. S. Verma, eds.). Kluwer Academic Publisher, Dordrecht, Belgium. pp.1–33).
To determine whether a complete extraction of rGUS from corn kernels, full-fat germ and defatted germ was achieved, the remaining solids were stained with X-Gluc. […] The Western blot analysis of the spent solids confirmed the presence of unextracted rGUS. […]

[2] = Large-scale custom milling of transgenic corn, rGUS activity retention; assay type: physicochemical; settings: 1,000 kg corn milled, less than 1 min at 90° C., bagged at about 50° C., 2 h at 30° C., overnight at 10° C.
Protocol: The heat stability results obtained in the laboratory were validated on a large scale. During the processing of 1,000 kg of transgenic corn in a custom-milling plant located in Grinnell, Iowa, the corn was exposed for a short time (less than 1 min) to 90° C. The milled corn was bagged at approximately 50° C., transported at ambient temperature (30° C.) for two hours to Iowa State University, and then stored overnight at 10° C. before the rGUS activity was determined.

[3] = Heat stability of rGUS in whole corn kernels; assay type: physicochemical
[4] = Storage stability of rGUS in flaked corn kernels; assay type: physicochemical
Protocol: Dry corn kernels (12% moisture, 500 g per batch) were cracked using a roller mill (Ferrel-Ross, Oklahoma City, Okla.), then flaked to 0.3 mm thickness using Roskamp flaking rolls (Model K, Roskamp Mfg., Inc., Waterloo, Iowa.). Seven 500-gram batches of flaked corn kernels were placed in zip-lock bags and stored at each of four different temperatures for up to 95 days. The storage stability study was performed in triplicate; three 50-g samples per time and per temperature. To determine the activity of GUS, a 20-g sample was taken from each of the three 50-g bags at the specified time and extracted with 200 ml of 20 mM Tris-HCl pH 7.9 containing 500 mM NaCl and 1 mM CaCl2. Extraction was carried out using a paddle mixer at ambient temperature for 30 min.

[5] = rGUS specific activity after three-step chromatography purification; assay type: biochemical
Source text: Distribution of rGUS in the Corn Kernel Tissue Corn kernels (100 g) were soaked in deionized water for two days. In two days separation of germ, hull and endosperm was completed and soaked for 2–3 days. The first half was soaked for 2 days, and the other half for 3 days. The hulls, endosperm, and germ were manually separated. Each fraction was air-dried at ambient temperature and ground with a coffee grinder (Salton/Maxim Housewares Inc., Mont. Prospect,Ill.). rGUS activity and the moisture content of each ground sample were determined. rGUS activity was determined using the assay described by Jefferson and Wilson (Jefferson, R. A.; Wilson, K. J. (1991). In The GUS Gene Fusion system. In “Plant Molecular Biology Manual”, Vol. 1, B14, (S. B. Gelven, R. A. Schilperoort and D. P. S. Verma, eds.). Kluwer Academic Publisher, Dordrecht, Belgium. pp.1–33). One unit (U) of rGUS activity was defined as the amount of enzyme that converts one nmole of p-nitrophenyl β-D-glucuronide per minute at pH 7.0 and 37° C. Storage and Heat Stability
Purification Recombinant GUS was purified from ground kernels, full-fat germ and defatted germ using a three-step chromatography. Ground corn kernels (75 g), full-fat germ (7.5 g), and defatted germ (7.5 g) samples were extracted with 50 mM NaPi buffer pH 7.5 (buffer A) at 1:4 or 1:10 solid-to-liquid ratio as described in the previous section. Fifteen ml of DEAE-Toyopearl (Supelco, Bellefonte, Pa.) resin in buffer A were added to the centrifuged and filtered extract to adsorb (capture) rGUS. The slurry was mixed with a magnetic stirrer for 15 min at ambient temperature, filtered through a funnel-supported No. 1 filter paper, and washed with 400 ml of buffer A. The washed DEAE resin was packed into a glass column with an inside diameter of 1.5 cm. The adsorbed rGUS was eluted with 0.3 M NaCl in buffer A. The fractions containing rGUS activity were combined, ammoniumsufate (AS) was added to a final concentration of 1 M, and the solution was filtered through a 0.45 μfilter. […]

B1: rGUS: recombinant β-glucuronidase produced in transgenic corn kernels (protein)
chain: MLRPVETPTREIKKLDGLWAFSLDRENCGIDQRWWESALQESRAIAVPGSFNDQFADADIRNYAGNVWYQREVFIPKGWAGQRIVLRFDAVTHYGKVWVNNQEVMEHQGGYTPFEADVTPYVIAGKSVRITVCVNNELNWQTIPPGMVITDENGKKKQSYFHDFFNYAGIHRSVMLYTTPNTWVDDITVVTHVAQDCNHASVDWQVVANGDVSVELRDADQQVVATGQGTSGTLQVVNPHLWQPGEGYLYELCVTAKSQTECDIYPLRVGIRSVAVKGEQFLINHKPFYFTGFGRHEDADLRGKGFDNVLMVHDHALMDWIGANSYRTSHYPYAEEMLDWADEHGIVVIDETAAVGFNLSLGIGFEAGNKPKELYSEEAVNGETQQAHLQAIKELIARDKNHPSVVMWSIANEPDTRPQGAREYFAPLAEATRKLDPTRPITCVNVMFCDAHTDTISDLFDVLCLNRYYGWYVQSGDLETAEKVLEKELLAWQEKLHQPIIITEYGVDTLAGLHSMYTDMWSEEYQCAWLDMYHRVFDRVSAVVGEQVWNFADFATSQGILRVGGNKKGIFTRDRKPKSAAFLLQKRWTGMNFGEKPQQGGKQ
rGUS activity after extraction with detergent ([1]; 1% (v/v) SDS and 2% (v/v) ME in extraction buffer): inactive | rGUS activity after corn oil extraction ([1]; germ defatted with hexane (˜60° C.)): did not affect the activity of rGUS | rGUS activity loss [2]: no loss of rGUS activity | rGUS activity after heating ([3]; kernels, 50° C. for up to six days): fully retained | loss of initial rGUS activity ([3]; kernels, 70° C. for 8 hours): 60% | rGUS activity after heating ([3]; kernels, 70° C. for one hour): did not significantly affect rGUS activity | residual rGUS activity ([3]; kernels, 90° C. for one hour): No residual rGUS activity | residual rGUS activity ([3]; kernels, 125° C. for 10 minutes): No residual rGUS activity | rGUS activity after heating ([3]; whole kernels, 50° C. for up to eight hours): did not affect rGUS activity | loss of rGUS activity ([4]; flaked kernels at 10° C. for up to 3 months): 23% | loss of initial GUS activity ([4]; flaked kernels at 25° C. after three weeks (sample spoilage)): 13% | loss of initial rGUS activity ([4]; flaked kernels at 37° C. for one week): 23% | rGUS activity loss ([4]; flaked kernels at −29, 10, or 25° C. for up to 2 weeks): no significant loss of rGUS activity | loss of rGUS activity ([4]; flaked kernels at −29° C. for up to 3 months): 14% | Specification activity ([5]; purified from defatted germ, solid-to-liquid ratio 1:10): 36,000 U/mg | Specification activity ([5]; purified from flaked corn, solid-to-liquid ratio 1:4): 36,000 U/mg | Specification activity ([5]; purified from full-fat germ, solid-to-liquid ratio 1:10): 45,000 U/mg
